Patent US20200131496A1 (REGENTS OF THE UNIVERSITY OF MINNESOTA, published 2020)
Where a chain is given by its changes, count along the chain named. Numbers in names are those of the source.

B1: His-tagged mCherry(1-232)-3×Ala linker-A3H-HapII(1-183), wild-type (enzyme)
chain: AAAMALLTAETFRLQFNNKRRLRRPYYPRKALLCYQLTPQNGSTPTRGYFENKKKCHAEICFINEIKSMGLDETQCYQVTCYLTWSPCSSCAWELVDFIKAHDHLNLRIFASRLYYHWCKPQQDGLRLLCGSQVPVEVMGFPEFADCWENFVDHEKPLSFNPYKMLEELDKNSRAIKRRLDRIKQS
notes: range 1-232; Purified from E. coli with RNase A treatment; also called wild-type mCherry-A3H; mCherry-A3Hwt; not shown: N-terminal His tag from the pRSFDuet-1 vector and engineered HRV 3C protease site upstream of mCherry; mCherry residues 1-232, amplified from pRSETB-mCherry (Shaner et al. 2004)
B2: mCherry-A3H-E56A-K52E (enzyme)
chain: B1 chain with K55E, E59A
notes: range 1-232; Used in size-exclusion chromatography and in the second crystal structure (6BBO); also called mCherry-A3H-K52E-E56A; A3H-K52E-E56A; not shown: N-terminal His tag from the pRSFDuet-1 vector and HRV 3C protease site; crystallized by similar met; mCherry residues 1-232, amplified from pRSETB-mCherry
B3: mCherry-A3H-K52E (enzyme)
chain: B1 chain with K55E
notes: range 1-232; His tag present in size-exclusion chromatography; Crystal holds two A3H monomers bridged by duplex RNA; also called mCherry-K52E; pdb 6BOB; not shown: N-terminal His tag from the pRSFDuet-1 vector and HRV 3C protease site; tag removed with 3C proteas; mCherry residues 1-232, amplified from pRSETB-mCherry
B4: mCherry-A3H-E56A-W115A-R175/6E (enzyme)
chain: B1 chain with E59A, W118A, R178E, R179E
notes: range 1-232; E56A added to prevent E. coli toxicity; preparation lacks RNA; also called W115A/R175/6E with E56A; not shown: N-terminal His tag from the pRSFDuet-1 vector and HRV 3C protease site; mCherry residues 1-232, amplified from pRSETB-mCherry
B5: mCherry-A3H-E56A (enzyme)
chain: B1 chain with E59A
notes: range 1-232; Catalytic mutant; also called E56A catalytic mutant; not shown: N-terminal His tag from the pRSFDuet-1 vector and HRV 3C protease site; mCherry residues 1-232, amplified from pRSETB-mCherry

Columns and labels:
[1] = target: the molecule itself; experiment: ion exchange and size-exclusion chromatography; self-association, RNA-mediated
[2] = target: the molecule itself; experiment: size-exclusion chromatography; self-association, RNA-mediated
[3] = target: the molecule itself; experiment: size-exclusion chromatography (self-association)

Protein	binding result [2]	also measured
B1	–	binding result [1]: binds
B2	binds	–
B3	binds	–
B4	–	binding result [3]: no binding
B5	binds	–
